For orientation: EC50 (read off the curve) means the midpoint of the concentration-response curve. Read a low EC50 (read off the curve) as higher potency in that assay. Broadly, the Kd is the constant that tells how readily two partners part at equilibrium. A high value points to weaker binding. In general, koff refers to the first-order rate constant of dissociation. Low readings indicate slow dissociation, high ones fast dissociation. The kon is the rate constant with which the complex forms. Higher therefore signals fast association.

This is an account of results in patent US20210403582A1 (JACOBIO PHARMACEUTICALS, published 2021).

Assay [1] concerns the target T1, human LIF protein (human, UniProt P15018 23-202).
T1 construct: Bought recombinant protein (Sino Biological / Yiqiao Shenzhou 14890-HNAH) in most assays; also called recombinant human LIF protein; rhLIF
As to the kind of experiment: ELISA, antigen coated 0.5 ug/ml, 293S supernatant non-heated, antibody 0.04 ug/mL. On the procedure:
(§1) Each well was coated with 100 μL of 0.5 μg/ml antigen and incubate overnight at 4° C., and the plates were washed three times with 300 μL of Wash Buffer. The plates were closed with 200 μL of Closure Buffer (2% bovine serum albumin) for 60 min at room temperature. The plates were washed three times with 300 μL of Wash Buffer. 100 μL of diluted anti-LIF antibody at different concentrations was added to each well and incubate for 1 hour at room temperature. The plates were washed 4 times with 300 μL of Wash Buffer. 100 μL of HRP-labeled goat anti-human Fc secondary antibody at a dilution of 1:5000 was added and incubate for 1 hour at room temperature. The plates were washed 6 times with 300 μL of Wash Buffer. 100 μL of H₂O₂-Amplx Color Development Solution was added for developing the color for 10 min at room temperature under dark conditions. The OD 450 value was read by an enzyme marker. Heat treatment: the expression medium was heated on the PCR machine at 70° C. for 5 min and then rapidly cooled to room temperature. Perform subsequent ELISA assays as above.
(In an ELISA, binding on a coated surface is turned into a signal by an enzyme label.)

The target in assay [2] is T1, human LIF protein. As to the kind of experiment: ELISA, antigen coated 0.5 ug/ml, 293S supernatant non-heated, antibody 1 ug/mL. On the procedure: as §1
In assay [3] the target is T1, human LIF protein. In words: ELISA, antigen coated 0.5 ug/ml, 293S supernatant heated 70 C 5 min, antibody 1 ug/mL. On the procedure:
as §1

Assay [4] concerns the target T1, human LIF protein. As to the kind of experiment: ELISA, antigen coated 0.5 ug/ml, 293S supernatant heated 70 C 5 min, antibody 0.2 ug/mL. The procedure:
as §1

Assay [5] has as its target T1, human LIF protein. As to the kind of experiment: ELISA (non-heated), purified IgG on antigen coated at 0.5 µg/mL, 3-fold dilutions.
For assay [6], the target named is T1, human LIF protein. As to the kind of experiment: ELISA, antigen coated 0.5 ug/ml, 293S supernatant non-heated, antibody 0.2 ug/mL. On the procedure:
as §1

Assay [7] deals with T1, human LIF protein. As to the kind of experiment: BLI (Gator), antibody on anti-human Fc biosensor, human LIF in solution. The procedure: The affinity of anti-LIF antibody to human LIF protein was determined using Gator. The anti-human LIF antibody was first diluted to 5 ug/mL with PBS and then added to A-F wells in second column of the 96-well plate (200 μL per well). […] PBS was added to A-F wells in the first and third columns (200 μL per well). The 96-well plates were placed into the instrument and detected with anti-human Fc biosensor.

The target of assay [8] is T1, human LIF protein. As to the kind of experiment: ELISA, antigen coated 0.5 ug/ml, 293S supernatant heated 70 C 5 min, antibody 0.04 ug/mL. On the procedure:
as §1

Assay [9] addresses T1, human LIF protein. In words: ELISA (heated), antibody kept at 70 °C for 5 min before the ELISA, antigen coated at 0.5 µg/mL.

T1 sequence (P15018 23-202 limits assumed): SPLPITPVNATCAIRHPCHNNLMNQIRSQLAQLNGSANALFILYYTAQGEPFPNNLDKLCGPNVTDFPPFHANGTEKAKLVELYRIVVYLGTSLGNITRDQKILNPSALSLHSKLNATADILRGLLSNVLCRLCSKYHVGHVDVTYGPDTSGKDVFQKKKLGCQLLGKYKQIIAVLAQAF

B1: 38E10E1C11 chimeric antibody (antibody, human IgG1, kappa)
heavy: not shown
light: DIHMTQSPASLSASVGETVTITCRASENIYSYLAWYQQKQGKSPQLLVYNAKTLAEGVPSRFSGSGSGTQFSLKINSLQPEDFGSYYCQHHYVTPLTFGAGTKLELKRTVAAPSVFIFPPSDEQLKSGTASVVCLLNNFYPREAKVQWKVDNALQSGNSQESVTEQDSKDSTYSLSSTLTLSKADYEKHKVYACEVTHQGLSSPVTKSFNRGEC
notes: Mouse variable regions of 38E10E1C11 with human IgG1 / kappa constant regions; also called 38E Chimeric; 38E chimeric antibody
On to B1, for which the ELISA signal with human LIF protein [1] was 6780; with human LIF protein [2], 11400; with human LIF protein [3], 10600; with human LIF protein [4] it was 8840; with human LIF protein [6], 10400; with human LIF protein [8] it was 4730. For the same molecule, in the assay with human LIF protein [5], the “EC50 (read off the curve)” value was about 0.07 µg/mL. For the same molecule, the affinity with human LIF protein [7], expressed as Kd, was 0.0233 nM. This molecule returned a koff with human LIF protein [7] of 1.57e-05 s⁻¹. In the assay with human LIF protein [7], this molecule returned a kon of 677000 M⁻¹ s⁻¹.

B2: H2L2 (antibody, human IgG1, kappa)
heavy: not shown
light: DIHMTQSPSSLSASVGDRVTITCRASENIYSYLAWYQQKPGKSPKLLVYNAKTLAEGVPSRFSGSGSGTDFTLTISSLQPEDFATYYCQHHYVTPLTFGQGTKLEIKRTVAAPSVFIFPPSDEQLKSGTASVVCLLNNFYPREAKVQWKVDNALQSGNSQESVTEQDSKDSTYSLSSTLTLSKADYEKHKVYACEVTHQGLSSPVTKSFNRGEC
notes: Humanized, human IgG1 / kappa
As to B2, the ELISA signal was 6520 with human LIF protein [1]; 11700 with human LIF protein [2]; 9780 with human LIF protein [3]; 8720 in the assay with human LIF protein [4]; 10300 with human LIF protein [6]; 5260 with human LIF protein [8].

B3: H1L2 (antibody, human IgG1, kappa, N297A)
heavy: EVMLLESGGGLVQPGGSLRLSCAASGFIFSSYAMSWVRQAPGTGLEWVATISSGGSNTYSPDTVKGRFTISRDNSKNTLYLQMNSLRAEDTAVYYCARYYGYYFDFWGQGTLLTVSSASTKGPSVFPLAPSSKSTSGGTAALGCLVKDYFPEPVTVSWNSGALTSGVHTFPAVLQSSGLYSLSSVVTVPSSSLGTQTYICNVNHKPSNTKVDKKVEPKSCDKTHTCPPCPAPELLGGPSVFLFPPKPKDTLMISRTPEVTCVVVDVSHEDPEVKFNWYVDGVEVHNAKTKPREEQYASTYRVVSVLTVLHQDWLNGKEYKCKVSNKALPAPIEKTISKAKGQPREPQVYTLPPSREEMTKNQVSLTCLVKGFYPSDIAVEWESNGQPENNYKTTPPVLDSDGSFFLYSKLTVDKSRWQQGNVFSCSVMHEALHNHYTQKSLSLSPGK
light: DIHMTQSPSSLSASVGDRVTITCRASENIYSYLAWYQQKPGKSPKLLVYNAKTLAEGVPSRFSGSGSGTDFTLTISSLQPEDFATYYCQHHYVTPLTFGQGTKLEIKRTVAAPSVFIFPPSDEQLKSGTASVVCLLNNFYPREAKVQWKVDNALQSGNSQESVTEQDSKDSTYSLSSTLTLSKADYEKHKVYACEVTHQGLSSPVTKSFNRGEC
notes: Humanized, human IgG1 / kappa
As for B3, the ELISA signal in the assay with human LIF protein [1] came out at 6680; with human LIF protein [2] it was 12100; with human LIF protein [3] it was 9830; with human LIF protein [4], 8920; with human LIF protein [6] it was 11200; with human LIF protein [8], 5490.

B4: H1L3 (antibody, human IgG1, kappa, N297A, V domains shown)
VH: EVMLLESGGGLVQPGGSLRLSCAASGFIFSSYAMSWVRQAPGTGLEWVATISSGGSNTYSPDTVKGRFTISRDNSKNTLYLQMNSLRAEDTAVYYCARYYGYYFDFWGQGTLLTVSS
VL: DIHMTQSPSSLSASVGDRVTITCRASENIYSYLAWYQQKPGKSPQLLVYNAKTLAEGVPSRFSGSGSGTQFTLTISSLQPEDFATYYCQHHYVTPLTFGQGTKLEIKR
notes: Humanized, human IgG1 / kappa
Turning to B4, the ELISA signal with human LIF protein [1] turned out to be 6440; in the assay with human LIF protein [2], 11800; with human LIF protein [3], 9630; with human LIF protein [4] it was 8750; with human LIF protein [6] it was 10800; with human LIF protein [8], 4980.

B5: 38E HuH1L4 (antibody, human IgG1, kappa, N297A, V domains shown)
VH: EVMLLESGGGLVQPGGSLRLSCAASGFIFSSYAMSWVRQAPGTGLEWVATISSGGSNTYSPDTVKGRFTISRDNSKNTLYLQMNSLRAEDTAVYYCARYYGYYFDFWGQGTLLTVSS
VL: DIHMTQSPSSLSASVGDRVTITCRASENIYSYLAWYQQKQGKSPQLLVYNAKTLAEGVPSRFSGSGSGTQFTLKINSLQPEDFATYYCQHHYVTPLTFGQGTKLEIKR
notes: Humanized, human IgG1 / kappa
On to B5, for which the ELISA signal was 7320 with human LIF protein [1]; 11900 in the assay with human LIF protein [2]; 10500 with human LIF protein [3]; 9700 in the assay with human LIF protein [4]; 10900 in the assay with human LIF protein [6]; 5670 with human LIF protein [8]. Besides, the “EC50 (read off the curve)” value with human LIF protein [5] is about 0.07 µg/mL; in the assay with human LIF protein [9], about 0.3 µg/mL.

B6: H2L3 (antibody, human IgG1, kappa, V domains shown)
VH: EVMLVESGGGLVQPGGSLRLSCAASGFIFSSYAMSWVRQAPGTGLEWVATISSGGSNTYSPDTVKGRFTISRDNSKNTLYLQMNSLRAEDTAMYYCARYYGYYFDFWGQGTLLTVSS
VL: DIHMTQSPSSLSASVGDRVTITCRASENIYSYLAWYQQKPGKSPQLLVYNAKTLAEGVPSRFSGSGSGTQFTLTISSLQPEDFATYYCQHHYVTPLTFGQGTKLEIKR
notes: Humanized, human IgG1 / kappa
Consider B6, for which the ELISA signal in the assay with human LIF protein [1] was 6270; with human LIF protein [2], 12000; in the assay with human LIF protein [3], 9730; in the assay with human LIF protein [4] it was 9150; in the assay with human LIF protein [6], 11300; with human LIF protein [8], 4870.

B7: H3L3 (antibody, human IgG1, kappa, N297A, V domains shown)
VH: EVMLVESGGGLVQPGGSLRLSCAASGFIFSSYAMSWVRQAPETRLEWVATISSGGSNTYSPDTVKGRFTISRDNSKNTLYLQMNSLRAEDTAMYYCARYYGYYFDFWGQGTLLTVSS
VL: DIHMTQSPSSLSASVGDRVTITCRASENIYSYLAWYQQKPGKSPQLLVYNAKTLAEGVPSRFSGSGSGTQFTLTISSLQPEDFATYYCQHHYVTPLTFGQGTKLEIKR
notes: Humanized, human IgG1 / kappa
In the case of B7, the ELISA signal with human LIF protein [1] is 6760; with human LIF protein [2], 11300; in the assay with human LIF protein [3] it was 9540; in the assay with human LIF protein [4] it was 8900; in the assay with human LIF protein [6], 11000; with human LIF protein [8], 5390.

B8: H3L1 (antibody, human IgG1, kappa, N297A)
heavy: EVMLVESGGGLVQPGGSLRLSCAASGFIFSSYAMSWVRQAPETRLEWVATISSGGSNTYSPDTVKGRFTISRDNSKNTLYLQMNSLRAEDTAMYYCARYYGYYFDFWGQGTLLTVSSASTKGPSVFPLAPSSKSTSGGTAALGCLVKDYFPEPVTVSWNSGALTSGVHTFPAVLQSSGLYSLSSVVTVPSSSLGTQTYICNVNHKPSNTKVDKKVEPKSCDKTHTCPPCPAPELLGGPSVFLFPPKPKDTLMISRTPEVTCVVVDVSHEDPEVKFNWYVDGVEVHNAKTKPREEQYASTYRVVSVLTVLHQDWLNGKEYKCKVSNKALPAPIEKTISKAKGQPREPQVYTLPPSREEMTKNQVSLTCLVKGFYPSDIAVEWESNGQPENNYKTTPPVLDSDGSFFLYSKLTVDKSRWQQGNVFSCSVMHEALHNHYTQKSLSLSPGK
light: DIQMTQSPSSLSASVGDRVTITCRASENIYSYLAWYQQKPGKSPKLLVYNAKTLAEGVPSRFSGSGSGTDFTLTISSLQPEDFATYYCQHHYVTPLTFGQGTKLEIKRTVAAPSVFIFPPSDEQLKSGTASVVCLLNNFYPREAKVQWKVDNALQSGNSQESVTEQDSKDSTYSLSSTLTLSKADYEKHKVYACEVTHQGLSSPVTKSFNRGEC
notes: Humanized, human IgG1 / kappa
As for B8, the ELISA signal is 6220 with human LIF protein [1]; 11400 in the assay with human LIF protein [2]; 9130 in the assay with human LIF protein [3]; 7900 with human LIF protein [4]; 10000 in the assay with human LIF protein [6]; 5190 in the assay with human LIF protein [8].

B9: H2L1 (antibody, human IgG1, kappa)
heavy: not shown
light: DIQMTQSPSSLSASVGDRVTITCRASENIYSYLAWYQQKPGKSPKLLVYNAKTLAEGVPSRFSGSGSGTDFTLTISSLQPEDFATYYCQHHYVTPLTFGQGTKLEIKRTVAAPSVFIFPPSDEQLKSGTASVVCLLNNFYPREAKVQWKVDNALQSGNSQESVTEQDSKDSTYSLSSTLTLSKADYEKHKVYACEVTHQGLSSPVTKSFNRGEC
notes: Humanized, human IgG1 / kappa
In the case of B9, the ELISA signal with human LIF protein [1] worked out at 6370; in the assay with human LIF protein [2], 12000; with human LIF protein [3], 9650; with human LIF protein [4], 8560; with human LIF protein [6], 10700; in the assay with human LIF protein [8], 5440.

B10: 38E HuH2L4 (antibody, human IgG1, kappa, V domains shown)
VH: EVMLVESGGGLVQPGGSLRLSCAASGFIFSSYAMSWVRQAPGTGLEWVATISSGGSNTYSPDTVKGRFTISRDNSKNTLYLQMNSLRAEDTAMYYCARYYGYYFDFWGQGTLLTVSS
VL: DIHMTQSPSSLSASVGDRVTITCRASENIYSYLAWYQQKQGKSPQLLVYNAKTLAEGVPSRFSGSGSGTQFTLKINSLQPEDFATYYCQHHYVTPLTFGQGTKLEIKR
notes: Humanized, human IgG1 / kappa
As to B10, the ELISA signal with human LIF protein [1] came out at 6880; with human LIF protein [2], 11800; with human LIF protein [3] it was 10600; with human LIF protein [4], 9230; with human LIF protein [6], 10900; in the assay with human LIF protein [8] it was 5700. For the same molecule, the figures for the “EC50 (read off the curve)” value in the assay with human LIF protein [5] and with human LIF protein [9] were about 0.07 µg/mL and about 0.3 µg/mL, respectively.

B11: 38E HuH1L1 (antibody, human IgG1, kappa, N297A)
heavy: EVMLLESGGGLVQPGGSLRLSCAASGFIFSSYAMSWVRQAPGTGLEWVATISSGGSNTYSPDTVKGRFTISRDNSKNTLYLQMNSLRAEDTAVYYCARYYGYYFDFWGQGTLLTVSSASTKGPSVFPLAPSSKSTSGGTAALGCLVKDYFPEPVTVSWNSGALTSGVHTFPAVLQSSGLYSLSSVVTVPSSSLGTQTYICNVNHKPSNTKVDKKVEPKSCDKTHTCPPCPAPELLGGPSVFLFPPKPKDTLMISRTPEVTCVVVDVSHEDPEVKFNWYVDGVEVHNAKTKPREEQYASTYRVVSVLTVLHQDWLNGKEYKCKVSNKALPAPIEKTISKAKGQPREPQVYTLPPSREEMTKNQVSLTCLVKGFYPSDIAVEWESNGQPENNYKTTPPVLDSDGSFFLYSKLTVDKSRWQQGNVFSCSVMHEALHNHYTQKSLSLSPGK
light: DIQMTQSPSSLSASVGDRVTITCRASENIYSYLAWYQQKPGKSPKLLVYNAKTLAEGVPSRFSGSGSGTDFTLTISSLQPEDFATYYCQHHYVTPLTFGQGTKLEIKRTVAAPSVFIFPPSDEQLKSGTASVVCLLNNFYPREAKVQWKVDNALQSGNSQESVTEQDSKDSTYSLSSTLTLSKADYEKHKVYACEVTHQGLSSPVTKSFNRGEC
notes: Humanized, human IgG1 / kappa
As for B11, the ELISA signal was found to be 6850 with human LIF protein [1]; 11800 in the assay with human LIF protein [2]; 9800 with human LIF protein [3]; 9010 with human LIF protein [4]; 10600 with human LIF protein [6]; 5970 in the assay with human LIF protein [8]. For the same molecule, the 50% effective concentration (EC50 (read off the curve)) with human LIF protein [5] was about 0.07 µg/mL; with human LIF protein [9] it was about 0.1 µg/mL. Further, the Kd with human LIF protein [7] was determined as 0.0817 nM. The koff in the assay with human LIF protein [7] was 4.65e-05 s⁻¹. For the same molecule, the kon with human LIF protein [7] is 569000 M⁻¹ s⁻¹.
